# Source: PMC10709652, “The separation pin distinguishes the pro– and anti–recombinogenic functions of Saccharomyces cerevisiae Srs2” (Nature Communications, 2023)
# Where a chain is given by its changes, count along the chain named. Numbers in names are those of the source.
# B1: Srs2^898 (GFP-Srs2 1-898) (Saccharomyces cerevisiae S288C) (protein)
# chain: MSSNNDLWLHLVSQLNTQQRAAALFDYTRGLQVIAGPGTGKTKVLTSRVAYLILHHHIHPRDIIVTTFTNKAANEMKERLQEMLRGAGVNISELLIGTFHSICLKILYRFGHLVDLQKDWRIIDEKEIDVILDDMIEKVPDQIRDYASSITRKVNLCMPSKNGDEWTIHPKLIKKQISKLKSNAILPEEYILDSNHDAALGYFYQIYQSELSKKNTLDFDDLLMYTFRLLTRVRVLSNIKHVLVDEFQDTNGIQLDLMFLFAKGNHHLSRGMTIVGDPDQSIYAFRNALAHNFLEMGRKCPIEYSTIILVENYRSSQKILNTSEILITQQNKGRQNRAPLRAQFDLDFPPVYMNFPAYFLEAPSLVRELLYLKALPNLFTFNDFAILVRQRRQIKRIESALIEHRIPYKIIRGHSFWDSKETRAMLNLLKLIFSPNDKHAILASLLYPARGLGPATGEKIKNALDTLATDVSCFQILKDISSKKIMLDIPTKGRSVIADFISMIENCQLLLQSTLLGGLSDLFDKLYELSGLKYEYLYKDGKKKNDQLEKSEPNLLNARHKNIELLKNYFLALLSKSESSDKEKNEAIKAATDEAEPIENKVITPKEYLRNFFNSLSLHSDAAEEEESESNKDAKIKREKNGFVTISTIHGAKGLEWPVVFIPGCEEGIIPCVFNDDKKDESEEDEEEDQENSKKDASPKKTRVLSVEDSIDEERRMFFVAQTRAKYLLYLSNTVTVEDVDRPRIASRFLTTDLIKAMSDSQKLFESTNSIKKLYRILNKKPPAEDDKLFSLDQLRKDYNQFIENRRERMIWQGIQMNDVYGIQLSRNKLLGSVSDFTSAADQLRLETQNSIFPQKKLIEKSRPSKINGNYAPKSRVKSPEKRYAPETTSFHSPTKKK
# notes: residues 1-898 of 1174 (C-terminal 276 residues omitted), N-terminal GFP tag kept, pET15b, Talon purified; expressed in E. coli Rosetta2 (DE3)
# B2: Srs2^898 (GFP-Srs2 1-898) (Saccharomyces cerevisiae S288C; Y283A) (protein)
# chain: B1 chain with Y283A
# notes: as for B1
# B3: Srs2^898 (GFP-Srs2 1-898) (Saccharomyces cerevisiae S288C; F68A) (protein)
# chain: B1 chain with F68A
# notes: as for B1
# B4: Srs2^898 (GFP-Srs2 1-898) (Saccharomyces cerevisiae S288C; F219A) (protein)
# chain: B1 chain with F219A
# notes: as for B1
# B5: Srs2^898 (GFP-Srs2 1-898) (Saccharomyces cerevisiae S288C; P671A) (protein)
# chain: B1 chain with P671A
# notes: as for B1
# B6: Srs2^898 (GFP-Srs2 1-898) (Saccharomyces cerevisiae S288C; N70A) (protein)
# chain: B1 chain with N70A
# notes: as for B1
# B7: Srs2^898 (GFP-Srs2 1-898) (Saccharomyces cerevisiae S288C; R389A) (protein)
# chain: B1 chain with R389A
# notes: as for B1
# B8: Srs2^898 (GFP-Srs2 1-898) (Saccharomyces cerevisiae S288C; F285A) (protein)
# chain: B1 chain with F285A
# notes: as for B1
# B9: Srs2^898 (GFP-Srs2 1-898) (Saccharomyces cerevisiae S288C; H100A) (protein)
# chain: B1 chain with H100A
# notes: as for B1
# B10: Srs2^898 (GFP-Srs2 1-898) (Saccharomyces cerevisiae S288C; Y775A) (protein)
# chain: B1 chain with Y775A
# notes: as for B1
# B11: Srs2^898 (GFP-Srs2 1-898) (Saccharomyces cerevisiae S288C; H650A) (protein)
# chain: B1 chain with H650A
# notes: as for B1
# Experiments:
# [1] = substrate: Nc1ncnc2c1ncn2[C@@H]1O[C@H](COP(=O)(O)OP(=O)(O)OP(=O)(O)O)[C@@H](O)[C@H]1O; test: ATP hydrolysis, gamma-32P-ATP, thin layer chromatography; type: biochemical, Saccharomyces cerevisiae; details: M13 ssDNA 2.5 µM (nucleotides), 2 mM MgCl2, 100 mM KCl, pH 7.6, 30 °C, 40 nM protein
# [2] = substrate: Nc1ncnc2c1ncn2[C@@H]1O[C@H](COP(=O)(O)OP(=O)(O)OP(=O)(O)O)[C@@H](O)[C@H]1O; test: as above; type: biochemical, Saccharomyces cerevisiae; details: M13 ssDNA 2.5 µM (nucleotides), 2 mM MgCl2, 100 mM KCl, pH 7.6, 30 °C, 40 nM protein; remark: listed apart in the source
# Text: ATP hydrolysis, gamma-32P-ATP, thin layer chromatography on Srs2^898 (GFP-Srs2 1-898) | N70A, H100A, F219A, Y283A, R268A, and R389A mutant proteins were all moderately affected
# [3] = substrate: Nc1ncnc2c1ncn2[C@@H]1O[C@H](COP(=O)(O)OP(=O)(O)OP(=O)(O)O)[C@@H](O)[C@H]1O; test: as above; type: biochemical, Saccharomyces cerevisiae; details: M13 ssDNA 2.5 µM (nucleotides), 2 mM MgCl2, 100 mM KCl, pH 7.6, 30 °C, 40 nM protein; remark: listed apart in the source
# Text: ATP hydrolysis, gamma-32P-ATP, thin layer chromatography on Srs2^898 (GFP-Srs2 1-898) | The F68A, P671A, and Y775A mutants were all largely unperturbed with respect to ATP hydrolysis
# GFP-Srs2 1-898 (WT) = GFP-Srs2 1-898 (WT) (Saccharomyces cerevisiae, UniProt P12954 1-898); test: EMSA; no ATP; 30 mM Tris-HCl pH 7.6, 100 mM KCl, 2 mM MgCl2, 1 mM DTT, 0.2 mg/mL BSA, 30 °C 10 min, no ATP; 1.3 µM (nucleotides) ssDNA, 10-100 nM protein; 10% native PAGE in; details: protein: recombinant; tags: N-terminal GFP; label: 5' fluorescein
# Srs2 898 H650A = Srs2 898 H650A (Saccharomyces cerevisiae, UniProt P12954 1-898, H650A); test: as above; details: protein: recombinant; tags: N-terminal GFP; label: 5' fluorescein
# Sequence of Srs2 898 H650A (P12954 1-898 H650A): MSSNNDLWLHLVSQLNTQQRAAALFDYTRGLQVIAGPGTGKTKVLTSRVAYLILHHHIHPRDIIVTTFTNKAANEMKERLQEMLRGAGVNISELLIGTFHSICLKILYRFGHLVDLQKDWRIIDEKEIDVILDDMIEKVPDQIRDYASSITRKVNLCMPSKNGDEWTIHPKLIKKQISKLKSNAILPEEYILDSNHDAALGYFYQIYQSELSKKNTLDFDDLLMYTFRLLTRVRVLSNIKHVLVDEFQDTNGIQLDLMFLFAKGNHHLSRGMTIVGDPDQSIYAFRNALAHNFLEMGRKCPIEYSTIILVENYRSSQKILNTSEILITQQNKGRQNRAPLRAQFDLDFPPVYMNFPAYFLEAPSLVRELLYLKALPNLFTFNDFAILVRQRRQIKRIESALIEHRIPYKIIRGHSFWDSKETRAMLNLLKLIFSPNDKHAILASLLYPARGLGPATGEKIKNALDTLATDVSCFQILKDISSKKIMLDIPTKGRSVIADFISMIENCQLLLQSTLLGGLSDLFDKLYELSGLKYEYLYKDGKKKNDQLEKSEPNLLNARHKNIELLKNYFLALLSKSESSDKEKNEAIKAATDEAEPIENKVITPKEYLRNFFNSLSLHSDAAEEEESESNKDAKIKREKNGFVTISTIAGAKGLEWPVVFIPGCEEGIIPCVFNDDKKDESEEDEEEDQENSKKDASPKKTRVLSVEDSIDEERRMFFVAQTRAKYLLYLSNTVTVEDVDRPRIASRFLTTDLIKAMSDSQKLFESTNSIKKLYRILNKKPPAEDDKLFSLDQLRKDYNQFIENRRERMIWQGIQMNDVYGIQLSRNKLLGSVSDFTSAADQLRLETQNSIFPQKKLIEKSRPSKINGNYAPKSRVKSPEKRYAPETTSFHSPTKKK
# Srs2 898 F68A = Srs2 898 F68A (Saccharomyces cerevisiae, UniProt P12954 1-898, F68A); test: as above; details: protein: recombinant; tags: N-terminal GFP; label: 5' fluorescein
# Sequence of Srs2 898 F68A (P12954 1-898 F68A): as the sequence (P12954 1-898 H650A) above, with F68A, A650H counted along it
# Srs2 898 F285A = Srs2 898 F285A (Saccharomyces cerevisiae, UniProt P12954 1-898, F285A); test: as above; details: protein: recombinant; tags: N-terminal GFP; label: 5' fluorescein
# Srs2 898 N70A = Srs2 898 N70A (Saccharomyces cerevisiae, UniProt P12954 1-898, N70A); test: as above; details: protein: recombinant; tags: N-terminal GFP; label: 5' fluorescein
# Sequence of Srs2 898 N70A (P12954 1-898 N70A): as the sequence (P12954 1-898 H650A) above, with N70A, A650H counted along it
# Srs2 898 F219A = Srs2 898 F219A (Saccharomyces cerevisiae, UniProt P12954 1-898, F219A); test: EMSA; no ATP; Kd within 10% of WT; 30 mM Tris-HCl pH 7.6, 100 mM KCl, 2 mM MgCl2, 1 mM DTT, 0.2 mg/mL BSA, 30 °C 10 min, no ATP; 1.3 µM (nucleotides) ssDNA, 10-100 nM protein; 10% native PAGE in; details: protein: recombinant; tags: N-terminal GFP; label: 5' fluorescein
# Srs2 898 H100A = Srs2 898 H100A (Saccharomyces cerevisiae, UniProt P12954 1-898, H100A); test: as above; details: protein: recombinant; tags: N-terminal GFP; label: 5' fluorescein
# Srs2 898 R286A = Srs2 898 R286A (Saccharomyces cerevisiae, UniProt P12954 1-898, R286A); test: EMSA; no ATP; Kd within 10% of WT (printed R268A); 30 mM Tris-HCl pH 7.6, 100 mM KCl, 2 mM MgCl2, 1 mM DTT, 0.2 mg/mL BSA, 30 °C 10 min, no ATP; 1.3 µM (nucleotides) ssDNA, 10-100 nM protein; 10% native PAGE in; details: protein: recombinant; tags: N-terminal GFP; label: 5' fluorescein
# Srs2 898 Y283A = Srs2 898 Y283A (Saccharomyces cerevisiae, UniProt P12954 1-898, Y283A); test: EMSA; no ATP; Kd within 10% of WT (printed Y238A); 30 mM Tris-HCl pH 7.6, 100 mM KCl, 2 mM MgCl2, 1 mM DTT, 0.2 mg/mL BSA, 30 °C 10 min, no ATP; 1.3 µM (nucleotides) ssDNA, 10-100 nM protein; 10% native PAGE in; details: protein: recombinant; tags: N-terminal GFP; label: 5' fluorescein
binder,measurement,setting,value
B1,Km,[1],1580 ± 710 µM
same,kcat,[1],51 ± 8 s⁻¹
B2,Km,[2],1520 ± 630 µM
same,kcat,[2],44 ± 6 sec–1
B3,Km,[3],1520 ± 710 µM
same,kcat,[3],49 ± 8 sec–1
B4,Km,[2],1510 ± 660 µM
same,kcat,[2],42 ± 6 sec–1
B5,Km,[3],1590 ± 720 µM
same,kcat,[3],50 ± 7 sec–1
B6,Km,[2],1320 ± 670 µM
same,kcat,[2],47 ± 7 sec–1
B7,Km,[2],1600 ± 720 µM
same,kcat,[2],44 ± 7 sec–1
B8,Km,[1],2750 ± 790 µM
same,kcat,[1],25 ± 4 sec–1
B9,Km,[2],1330 ± 710 µM
same,kcat,[2],45 ± 8 sec–1
B10,Km,[3],1610 ± 740 µM
same,kcat,[3],51 ± 8 sec–1
B11,Km,[1],2910 ± 780 µM
same,kcat,[1],15 ± 2 sec–1
ATTAAGCTCTAAGCCATGAATTCAAATGACCTCTTATCAA (ssDNA) [40-nt ssDNA],Kd,GFP-Srs2 1-898 (WT),29 ± 3 nM
same,Kd,Srs2 898 H650A,46 ± 3 nM
same,Kd,Srs2 898 F68A,31 ± 2 nM
same,Kd,Srs2 898 F285A,41 nM
same,Kd,Srs2 898 N70A,30 ± 3 nM
same,binding result,Srs2 898 F219A,binds
same,binding result,Srs2 898 H100A,binds
same,binding result,Srs2 898 R286A,binds
same,binding result,Srs2 898 Y283A,binds
